In article PMC3983792 (Nature, 2012):
Each block holds one molecule with its values, some of them ahead of it.

What was measured:
[1] = target: menin-MLL1_(MBM-LBM) complex (human) (UniProt O00255); assay: ITC
[2] = target: T1, meninΔ (human menin with the unstructured loop, residues 460–519, deleted) (human, UniProt O00255-2 1-610, residues 460–519 deleted); assay: crystal structure
T1 sequence (looked up): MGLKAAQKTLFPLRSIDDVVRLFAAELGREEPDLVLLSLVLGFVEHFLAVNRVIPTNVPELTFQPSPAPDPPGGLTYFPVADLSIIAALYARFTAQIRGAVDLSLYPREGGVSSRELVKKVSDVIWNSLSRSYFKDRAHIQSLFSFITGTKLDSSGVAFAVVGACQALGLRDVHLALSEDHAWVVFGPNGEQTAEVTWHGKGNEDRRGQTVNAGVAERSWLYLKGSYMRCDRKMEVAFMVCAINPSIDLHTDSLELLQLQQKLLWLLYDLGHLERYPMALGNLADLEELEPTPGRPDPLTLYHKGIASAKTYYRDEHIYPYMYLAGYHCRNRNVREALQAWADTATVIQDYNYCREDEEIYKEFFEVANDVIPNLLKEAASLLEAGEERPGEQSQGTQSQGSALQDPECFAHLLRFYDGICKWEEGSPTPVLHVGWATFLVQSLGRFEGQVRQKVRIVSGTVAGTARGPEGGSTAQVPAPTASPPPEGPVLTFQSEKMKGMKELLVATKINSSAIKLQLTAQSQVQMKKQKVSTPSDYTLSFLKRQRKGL

[3] = target: T1, meninΔ (human menin with the …); assay: ITC
full-length menin [4] = target: T2, full-length menin (human, UniProt O00255-2 1-610); assay: pull-down
T2 sequence (looked up): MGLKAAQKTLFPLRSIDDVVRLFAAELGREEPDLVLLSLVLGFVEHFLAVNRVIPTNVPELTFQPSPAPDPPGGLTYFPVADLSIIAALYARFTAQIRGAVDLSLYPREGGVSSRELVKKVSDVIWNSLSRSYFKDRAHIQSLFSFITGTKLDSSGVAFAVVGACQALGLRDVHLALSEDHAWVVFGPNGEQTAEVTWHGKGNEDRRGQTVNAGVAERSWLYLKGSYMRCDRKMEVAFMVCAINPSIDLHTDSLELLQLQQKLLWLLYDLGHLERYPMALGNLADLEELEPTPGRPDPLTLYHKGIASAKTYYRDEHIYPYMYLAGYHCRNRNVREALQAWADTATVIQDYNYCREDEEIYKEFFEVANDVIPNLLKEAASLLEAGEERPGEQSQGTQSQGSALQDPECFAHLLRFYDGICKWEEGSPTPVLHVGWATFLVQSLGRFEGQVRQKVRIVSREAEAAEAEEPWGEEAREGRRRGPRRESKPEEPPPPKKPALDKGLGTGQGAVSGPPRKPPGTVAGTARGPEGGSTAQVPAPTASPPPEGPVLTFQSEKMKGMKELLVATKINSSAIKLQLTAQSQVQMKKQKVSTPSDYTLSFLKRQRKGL

full-length menin [5] = target: T2, full-length menin; assay: ITC

B1: JunDMBMΔ (JunD residues 27–47 with residues 40–45 deleted) (peptide, UniProt P17535 27-47, looked up)
peptide: SPGRLFPGAPPTAKK
- binding result [2]: binds

B2: MLL1_(MBM-LBM)Δ (MLL1 residues 6–153 with loops 16–22 and 36–102 deleted) (domain or fragment, human, UniProt Q03164 6-153, looked up)
chain: RWRFPARPGTGRRGLGGAPRQRVPALLRVGPGFDAALQVSAAIGTNLRRFRAVFGESGGGGGSGEDEQFLGFGS
- binding result [2]: binds

B4: GST-fused JunD (residues 1–150) (domain or fragment, human, UniProt P17535 1-150, looked up)
chain: METPFYGDEALSGLGGGASGSGGSFASPGRLFPGAPPTAAAGSMMKKDALTLSLSEQVAAALKPAAAPPPTPLRADGAPSAAPPDGLLASPDLGLLKLASPELERLIIQSNGLVTTTPTSSQFLYPKVAASEEQEFAEGFVKALEDLHKQ
- binding result (full-length menin [4]): binds

B6: MLL1MBM (menin-binding motif, residues 6–25 of MLL1) (peptide, UniProt Q03164 6-25, looked up)
peptide: RWRFPARPGTTGGGGGGGRR
- binding result (full-length menin [5]): binds
- Kd [3]: 82 nM

Next, values leading:

- Kd [1]: 470 nM
Molecule: LEDGFIBD (IBD domain of LEDGF) (domain or fragment)

- binding result [3]: binds
B3: JunDMBM (JunD residues 27–47, menin-binding motif) (peptide, UniProt P17535 27-47, looked up)
peptide: SPGRLFPGAPPTAAAGSMMKK

- Kd [3]: 120 nM
B5: MLL2MBM (MLL2 residues 16–35) (peptide, UniProt Q9UMN6 16-35, looked up)
peptide: ARGRFPGRPRGAGGGGGRGG

- fold decrease in binding affinity against wild-type MLL1MBM [3]: 21 fold
B7: MLL1MBM with 24RR25 substituted with two glutamates (peptide, UniProt Q03164 6-25, looked up)
peptide: RWRFPARPGTTGGGGGGGEE
